Measured values published in the RNAGym collection of RNA variant scans (doi:10.1093/nar/gkz1192).

B1: CPEB3 Ribozyme (parent)
chain: UAACAGGGGGCCACAGCAGAAGCGUUCACGUCGCAGCCCCUGUCAGAUUCUGGUGAAUCUGCGAAUUCUGCUGUAUAUCUC

Variants of: B1
Assay: self-cleavage, relative activity (ratio to wild type); higher = more cleavage; in vitro, sequencing
Method in brief: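 After error-prone PCR and barcoding, CPEB3 ribozyme mutant libraries were transcribed with T7 RNA polymerase at 37°C for 5 hours, then given 15 min with DNase I before an EDTA stop, and they cleaved during both steps. Reverse transcription with template switching preceded Illumina sequencing. Relative activity divides a variant's cleaved/total read fraction by the unmutated ribozyme's. At least 5 reads were required per variant, and three batches were averaged.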

Variant	self-cleavage
G22U U72A	0.15
G22U U72C	0.3
C23U A77G	0.34
C23U A77U	0.23
G22C U78A	0.06
G22U G61C	0.14
G22U A28U	0.17
G22U A28G	0.17
G24A A35G	0.38
G24A A35U	0.17
G24A C68A	0.07
G24A A77U	0.46
G24A A77G	0.23
C23G C29U	0.36
C23G C29G	0.08
G22U	0.27
C23U G70A	0.17
C23U U74A	0.58
C23U U74C	0.76
C23A U31C	0.23
C23A U25A	0.27
C23A U25C	0.36
C23A U58C	0.56
C23A U58A	0.18

Variant	self-cleavage
G24A A64G	0.36
G24A A64U	0.28
C23A A56G	0.2
G24C A28G	0.41
G24C A28U	0.28
C23U U43C	0.3
C23U U43G	0.11
C23U U43A	0.34
C23A U60A	0.19
C23A U60G	0.06
C23A U60C	0.33
C23G U66C	0.15
G24A U25A	0.26
G24A U25C	0.25
C23U A64U	0.16
C23U A64G	0.26
C23U A64C	0.09
C23U A45U	0.27
C23U A45G	0.25
C23U A45C	0.45
C23G U67C	0.12
C23G U67A	0.25
C23G C39U	0.08
C23A G63A	0.09

Variant	self-cleavage
C23A A47U	0.47
C23A A47G	0.41
C23U U72C	0.48
C23U U72A	0.22
C23U U72G	0.1
G24A	0.27
G24C	0.31
C23G U31C	0.41
C23A A28U	0.14
C23A A28G	0.18
C23A G73A	0.23
C23A C81G	0.22
G24A U41C	0.3
G24A U41G	0.12
G24A U41A	0.21
G24A C37A	0.17
G24A C62U	0.18
C23G A65U	0.22
G22U A45G	0.22
G24A C29G	0.21
G22U A35U	0.09
G24A G73A	0.14
G24A G73C	0.4
C23U A28C	0.43

Variant	self-cleavage
C23U A28G	0.26
C23U A28U	0.23
C23A U78C	0.12
C23A U78A	0.21
C23A U78G	0.08
G24A C71G	0.09
G24A C71U	0.36
G22U U26A	0.26
G22U U26C	0.11
C23U U51C	0.07
C23U U51A	0.2
G24C G30C	0.11
C23G U41A	0.1
C23G U41C	0.21
G22U A64G	0.36
C23U U69A	0.1
C23U U69C	0.19
C23A U76C	0.21
C23U G24A	0.22
G24C A77G	0.3
G24C A77U	0.09
C23U C38U	0.13
C23U C38A	0.16
C23A U43A	0.28

Variant	self-cleavage
C23A U43C	0.23
G24A A65G	0.28
G24C A45U	0.13
G24C A45G	0.21
G24C A64G	0.45
C23U U58A	0.34
G24A U51A	0.15
G24A U51C	0.31
G24A U51G	0.11
G24A U72A	0.29
G24A U72C	0.25
C23G U74C	0.41
C23G U74A	0.28
C23U U80G	0.26
C23U U80A	0.28
C23A U74A	0.23
C23G U48C	0.29
C23G C62A	0.29
C23G A47G	0.28
G24C A75U	0.33
C23G U60A	0.19
C23G U60C	0.07
C23G A56G	0.23
C23G A56U	0.4

Variant	self-cleavage
C23A U54C	0.18
G24A G46A	0.2
C23A U66A	0.1
G24A C81A	0.16
C23U A57G	0.31
C23U A57U	0.19
G24A U74G	0.13
G24A U74A	0.18
G22U U66C	0.52
G22U U66G	0.17
G24A A47U	0.21
G24A A47G	0.27
C23U U25A	0.14
C23U U25C	0.19
G24C A35G	0.1
C23A A35G	0.27
C23A A35U	0.31
G24A G55A	0.1
C23A A57G	0.26
G24A A28G	0.25
G24A A28U	0.14
C23G U78C	0.28
C23G U78A	0.32
C23U U76C	0.4

Variant	self-cleavage
C23U U76A	0.22
C23G G63U	0.32
C23U A75G	0.27
G22U C59U	0.16
G24A U43A	0.17
G24A U43C	0.32
C23U U48C	0.14
C23A U67C	0.17
C23A U67A	0.16
C23A C62U	0.21
G24A U49C	0.21
G24A U49A	0.39
G24A U80A	0.24
G24A U80C	0.59
G24A G52U	0.37
G24A G52A	0.21
G24A G36A	0.15
G24A G36U	0.1
G24A U78G	0.16
G24A U78C	0.33
G24A U78A	0.07
C23G A45G	0.21
C23A C44U	0.08
C23G U49C	0.16

Variant	self-cleavage
G24A U60G	0.13
G24A U60A	0.28
G24A U60C	0.24
C23G U51G	0.5
C23G U51A	0.16
G22U U41A	0.17
G22U U41C	0.27
C23U C44A	0.38
G22U U67C	0.06
G24A U54G	0.15
G24A U54A	0.25
G24A U54C	0.27
G22U G46A	0.17
C23U U31A	0.23
C23U U31C	0.22
G22C U80G	0.27
G22C U74G	0.19
G24C G63A	0.18
C23U A56G	0.31
C23U A56U	0.15
C23G A28U	0.23
C23G A28G	0.17
G24A G63A	0.37
G24A G63C	0.16

Variant	self-cleavage
G24A A45U	0.25
G24A A45C	0.36
G24A A45G	0.24
C23U U66C	0.15
C23A U72C	0.41
C23A U72A	0.08
G22C U72C	0.2
C23G A57G	0.16
C23G U25C	0.28
C23U U26A	0.24
C23U U26C	0.2
C23A C38U	0.49
C23U A35G	0.95
C23U A35U	0.16
G24A U76C	0.26
C23G U43C	0.25
C23U A47G	0.18
C23U A47U	0.2
C23U G30A	0.12
C23U C37U	0.2
G22U U25C	0.2
G24A U67A	0.18
G24A U67C	0.22
G24A U58C	0.12

Variant	self-cleavage
G24A U58A	0.34
C23U U54G	0.31
C23U U54A	0.31
C23U U54C	0.16
C23A U51C	0.27
C23A U51A	0.37
G24A U48C	0.22
C23U U67C	0.28
C23U U67G	0.38
C23U U67A	0.16
C23A C34U	0.22
C23A A64G	0.53
C23U G52A	0.57
C23A G52U	0.15
C23U G55A	0.24
G24A C40U	0.1
G22U C71U	0.08
C23U U41C	0.27
C23U U41A	0.12
C23U U49C	0.28
C23U U49G	0.41
G24A C27U	0.3
G24A C27A	0.18
C23A C79A	0.26

Variant	self-cleavage
G22U U76A	0.33
C23U C27U	0.31
G24C G42A	0.32
G24A A75U	0.25
G24A A75G	0.32
G24C A57U	0.11
G24C A57G	0.11
C23A A45C	0.34
C23A A45G	0.23
C23G A64G	0.08
C23G A64U	0.26
G22U U31A	0.32
G22U U31C	0.11
C23G U54G	0.26
C23G U54C	0.28
C23G U54A	0.26
C23A C39U	0.23
G24A G30A	0.24
C23G U80C	0.13
C23G U80A	0.47
C23A U69C	0.12
C23U	0.35
C23G	0.26
C23A	0.3

Variant	self-cleavage
G22U A56G	0.2
G24A G42A	0.12
C23U C39U	0.24
C23U C39A	0.19
C23A U41A	0.35
C23A U41C	0.34
C23A U48C	0.16
G24A U69G	0.13
G24A U69C	0.32
G24A U69A	0.25
G22U A75U	0.26
G22U A75C	0.23
G22U A75G	0.39
C23A G24A	0.13
C23U C32U	0.14
C23U A65G	0.43
C23A A65G	0.28
G24C C29A	0.23
G24A U31A	0.2
G24A U31C	0.15
C23G A35U	0.19
G24A G53A	0.53
C23U C34U	0.36
C23A G36U	0.25

Variant	self-cleavage
C23G U26A	0.1
C23G U26C	0.25
G24C A47G	0.48
C23U U78C	0.27
G24A U66C	0.39
G24A U66A	0.3
C23A U49A	0.25
G24A G61A	0.19
G24A G61C	0.09
G24C G61A	0.18
G24A C32A	0.29
C23U C29U	0.21
G24A C44U	0.18
G24A A57C	0.15
G24A A57G	0.15
C23G A75G	0.14
C23G A75U	0.07
C23U C62G	0.09
G22U U43A	0.34
G22U U43C	0.3
C23A C40G	0.23
C23A U26A	0.49
C23G U58C	0.21
C23U G61C	0.11

Variant	self-cleavage
C23U G61A	0.25
C23G A77C	0.27
C23G A77U	0.36
C23G A77G	0.67
C23A U80C	0.12
C23A U80G	0.51
C23A U80A	0.23
C23G U72A	0.04
C23G U72C	0.13
G24A A56U	0.37
G24A A56G	0.13
C23U U60C	0.15
C23U U60A	0.26
C23U G46A	0.06
G24A C39U	0.17
G22U U60A	0.17
G22U U60C	0.07
G22U U80C	0.24
G24A U26A	0.16
G24A U26C	0.3
C23G U69C	0.08
C23G U69A	0.12
